For the assay, the target named is recombinant human prolidase with N-terminal His-Tag (human) (UniProt P12955). In words: SEC; Superdex 200 gel filtration in 150 mM NaCl, 25 mM Tris-HCl pH 7.5, 1 mM TCEP-HCl; mass by a commercial standard (Bio-Rad).

The term stoichiometry N denotes a count of units in the complex or per binding partner.

Consider “recombinant human prolidase with N-terminal His-Tag (from UniProt P12955 1-493) (enzyme)”, for which the stoichiometry N was determined as 2.

The values are drawn from publication PMC9600000.
